# Laboratory results published in article PMC11551957 (ACS Applied Materials & Interfaces, 2024).
# B1: 10E8 Fab-mVenus S65C conjugated with Fus4 (Fab, V domains shown)
# VH: EVQLVESGGGLVKPGGSLRLSCSASGFDFDNAWMTWVRQPPGKGLEWVGRITGPGEGWSVDYAAPVEGRFTISRLNSINFLYLEMNNLRMEDSGLYFCARTGKYYDFWSGYPPGEEYFQDWGRGTLVTVSS
# VL: SYELTQETGVSVALGRTVTITCRGDSLRSHYASWYQKKPGQAPILLFYGKNNRPSGVPDRFSGCASGNRASLTISGAQAEDDAEYYCSSRDKSGSRLSVFGGGTKLTVL
# B2: 10E8 Fab-mVenus S65C conjugated with Lin3 (Fab, V domains shown)
# VH: B1 VH
# VL: B1 VL
# Target: T1, MPER-TM(654-709) polypeptide (HIV-1, UniProt P04578)
# T1 construct: also called MPER-TMD polypeptide; MPER-TMD construct
# Test: flow cytometry on cells; stable HEK293T cells expressing the antigen; 10^6 cells; Fab-mVenus variants at 2 μg/mL, 30 min, RT, FACS buffer (PBS, 0.1% FBS); mVenus fluorescence read; Env cells with or without preincubation with Ig-mD1.22 (20 μg/mL, 30 min)
# Details: one partner purified
row,Binder,binding result
1,B1,binds
2,B2,binds
